Measurements taken from patent US20140087995A1 (published 2014).
Numbered stars: 1 amine (or outer) side, 2 acyl side, 3 side chain; on linkers, the order of the positions; unused ones are H or OH. Bridge positions count the residues as written; N and C are the ends. Side chains are listed from the residue outwards. Ends that are not written are not given here. * marks the point of attachment. C20 diacid = O=C(O)CCCCCCCCCCCCCCCCCCC(=O)*; γGlu = O=C(O)[C@H](CCC(=O)[*:2])N[*:1]

T1: rat calcitonin receptor (rat, UniProt P32214 25-516)
T1 construct: whole, on cells; also called rCTR; rat calcitonin (a) receptor
T1 sequence (looked up): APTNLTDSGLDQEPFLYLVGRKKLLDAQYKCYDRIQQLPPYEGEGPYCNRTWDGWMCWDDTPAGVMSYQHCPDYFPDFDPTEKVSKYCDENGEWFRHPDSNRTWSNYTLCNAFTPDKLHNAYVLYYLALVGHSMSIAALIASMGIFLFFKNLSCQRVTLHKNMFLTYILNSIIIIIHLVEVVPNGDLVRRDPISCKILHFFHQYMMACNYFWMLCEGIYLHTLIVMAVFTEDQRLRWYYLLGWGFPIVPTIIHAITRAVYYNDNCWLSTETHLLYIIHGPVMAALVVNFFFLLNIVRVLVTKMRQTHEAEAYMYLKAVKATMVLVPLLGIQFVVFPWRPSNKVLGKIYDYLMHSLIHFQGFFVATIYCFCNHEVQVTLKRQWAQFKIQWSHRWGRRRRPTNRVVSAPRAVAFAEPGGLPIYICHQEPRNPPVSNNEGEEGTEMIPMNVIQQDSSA

T2: rat amylin receptor (rat calcitonin receptor + rat RAMP 3) (rat, UniProt P32214 25-516; Q9JJ73 23-147)
T2 construct: whole, on cells; also called rAmylin-R; rat amylin 3(a) receptor
T2 sequence (looked up) 1: T1 sequence (looked up)
T2 sequence (looked up) 2: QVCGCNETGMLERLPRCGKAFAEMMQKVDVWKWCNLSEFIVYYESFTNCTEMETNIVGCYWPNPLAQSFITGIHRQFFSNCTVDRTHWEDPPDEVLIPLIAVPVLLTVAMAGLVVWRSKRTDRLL

T3: human calcitonin receptor (human, UniProt P30988 25-474)
T3 construct: whole, on cells; also called hCTR; hCT
T3 sequence (looked up): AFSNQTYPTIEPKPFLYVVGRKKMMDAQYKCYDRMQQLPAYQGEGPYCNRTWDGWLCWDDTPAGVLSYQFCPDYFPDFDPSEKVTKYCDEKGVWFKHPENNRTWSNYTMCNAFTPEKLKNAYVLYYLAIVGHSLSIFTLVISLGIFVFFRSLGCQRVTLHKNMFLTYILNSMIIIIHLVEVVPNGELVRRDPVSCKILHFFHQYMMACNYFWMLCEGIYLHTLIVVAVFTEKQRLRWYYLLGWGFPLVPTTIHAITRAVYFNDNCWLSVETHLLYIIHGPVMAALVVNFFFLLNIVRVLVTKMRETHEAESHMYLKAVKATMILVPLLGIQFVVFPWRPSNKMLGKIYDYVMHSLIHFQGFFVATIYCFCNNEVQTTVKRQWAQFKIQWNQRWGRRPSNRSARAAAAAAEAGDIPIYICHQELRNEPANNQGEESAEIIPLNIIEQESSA

B1: N^ε1-[(4S)-4-carboxy-4-[[(4S)-4-carboxy-4-(19-carboxynonadecanoylamino)butanoyl]amino]butanoyl]-[Arg17,Pro21,Pro27,His34]-h-amylin (peptide)
peptide: K([γGlu-γGlu-C20 diacid])CNTATCATQRLANFLRHSSPNFGAIPSSTNVGHNTY-NH2
modifications: disulfide 2-7; N-terminus assumed
SMILES: CC[C@H](C)[C@H](NC(=O)[C@H](C)NC(=O)CNC(=O)[C@H](Cc1ccccc1)NC(=O)[C@H](CC(N)=O)NC(=O)[C@@H]1CCCN1C(=O)[C@H](CO)NC(=O)[C@H](CO)NC(=O)[C@H](Cc1c[nH]cn1)NC(=O)[C@H](CCCNC(=N)N)NC(=O)[C@H](CC(C)C)NC(=O)[C@H](Cc1ccccc1)NC(=O)[C@H](CC(N)=O)NC(=O)[C@H](C)NC(=O)[C@H](CC(C)C)NC(=O)[C@H](CCCNC(=N)N)NC(=O)[C@H](CCC(N)=O)NC(=O)[C@@H](NC(=O)[C@H](C)NC(=O)[C@@H]1CSSC[C@H](NC(=O)[C@@H](N)CCCCNC(=O)CC[C@H](NC(=O)CC[C@H](NC(=O)CCCCCCCCCCCCCCCCCCC(=O)O)C(=O)O)C(=O)O)C(=O)N[C@@H](CC(N)=O)C(=O)N[C@@H]([C@@H](C)O)C(=O)N[C@@H](C)C(=O)N[C@@H]([C@@H](C)O)C(=O)N1)[C@@H](C)O)C(=O)N1CCC[C@H]1C(=O)N[C@@H](CO)C(=O)N[C@@H](CO)C(=O)N[C@H](C(=O)N[C@@H](CC(N)=O)C(=O)N[C@H](C(=O)NCC(=O)N[C@@H](Cc1c[nH]cn1)C(=O)N[C@@H](CC(N)=O)C(=O)N[C@H](C(=O)N[C@@H](Cc1ccc(O)cc1)C(N)=O)[C@@H](C)O)C(C)C)[C@@H](C)O
notes: synthetic analogue of human amylin; also called compound 86
B2: N^ε1-[(4S)-4-carboxy-4-[[(4S)-4-carboxy-4-(19-carboxynonadecanoylamino)butanoyl]amino]butanoyl]-[Glu14,Arg17,Pro21,Pro27,Arg34]-h-amylin (peptide)
peptide: K([γGlu-γGlu-C20 diacid])CNTATCATQRLAEFLRHSSPNFGAIPSSTNVGRNTY-NH2
modifications: disulfide 2-7; N-terminus assumed
SMILES: CC[C@H](C)[C@H](NC(=O)[C@H](C)NC(=O)CNC(=O)[C@H](Cc1ccccc1)NC(=O)[C@H](CC(N)=O)NC(=O)[C@@H]1CCCN1C(=O)[C@H](CO)NC(=O)[C@H](CO)NC(=O)[C@H](Cc1c[nH]cn1)NC(=O)[C@H](CCCNC(=N)N)NC(=O)[C@H](CC(C)C)NC(=O)[C@H](Cc1ccccc1)NC(=O)[C@H](CCC(=O)O)NC(=O)[C@H](C)NC(=O)[C@H](CC(C)C)NC(=O)[C@H](CCCNC(=N)N)NC(=O)[C@H](CCC(N)=O)NC(=O)[C@@H](NC(=O)[C@H](C)NC(=O)[C@@H]1CSSC[C@H](NC(=O)[C@@H](N)CCCCNC(=O)CC[C@H](NC(=O)CC[C@H](NC(=O)CCCCCCCCCCCCCCCCCCC(=O)O)C(=O)O)C(=O)O)C(=O)N[C@@H](CC(N)=O)C(=O)N[C@@H]([C@@H](C)O)C(=O)N[C@@H](C)C(=O)N[C@@H]([C@@H](C)O)C(=O)N1)[C@@H](C)O)C(=O)N1CCC[C@H]1C(=O)N[C@@H](CO)C(=O)N[C@@H](CO)C(=O)N[C@H](C(=O)N[C@@H](CC(N)=O)C(=O)N[C@H](C(=O)NCC(=O)N[C@@H](CCCNC(=N)N)C(=O)N[C@@H](CC(N)=O)C(=O)N[C@H](C(=O)N[C@@H](Cc1ccc(O)cc1)C(N)=O)[C@@H](C)O)C(C)C)[C@@H](C)O
notes: synthetic analogue of human amylin; also called compound 88
B3: N^ε1-[(4S)-4-carboxy-4-[[(4S)-4-carboxy-4-(19-carboxynonadecanoylamino)butanoyl]amino]butanoyl]-[Glu14,Arg17,Pro21,Pro27,Arg35]-h-amylin (peptide)
peptide: K([γGlu-γGlu-C20 diacid])CNTATCATQRLAEFLRHSSPNFGAIPSSTNVGSRTY-NH2
modifications: disulfide 2-7; N-terminus assumed
SMILES: CC[C@H](C)[C@H](NC(=O)[C@H](C)NC(=O)CNC(=O)[C@H](Cc1ccccc1)NC(=O)[C@H](CC(N)=O)NC(=O)[C@@H]1CCCN1C(=O)[C@H](CO)NC(=O)[C@H](CO)NC(=O)[C@H](Cc1c[nH]cn1)NC(=O)[C@H](CCCNC(=N)N)NC(=O)[C@H](CC(C)C)NC(=O)[C@H](Cc1ccccc1)NC(=O)[C@H](CCC(=O)O)NC(=O)[C@H](C)NC(=O)[C@H](CC(C)C)NC(=O)[C@H](CCCNC(=N)N)NC(=O)[C@H](CCC(N)=O)NC(=O)[C@@H](NC(=O)[C@H](C)NC(=O)[C@@H]1CSSC[C@H](NC(=O)[C@@H](N)CCCCNC(=O)CC[C@H](NC(=O)CC[C@H](NC(=O)CCCCCCCCCCCCCCCCCCC(=O)O)C(=O)O)C(=O)O)C(=O)N[C@@H](CC(N)=O)C(=O)N[C@@H]([C@@H](C)O)C(=O)N[C@@H](C)C(=O)N[C@@H]([C@@H](C)O)C(=O)N1)[C@@H](C)O)C(=O)N1CCC[C@H]1C(=O)N[C@@H](CO)C(=O)N[C@@H](CO)C(=O)N[C@H](C(=O)N[C@@H](CC(N)=O)C(=O)N[C@H](C(=O)NCC(=O)N[C@@H](CO)C(=O)N[C@@H](CCCNC(=N)N)C(=O)N[C@H](C(=O)N[C@@H](Cc1ccc(O)cc1)C(N)=O)[C@@H](C)O)C(C)C)[C@@H](C)O
notes: synthetic analogue of human amylin; also called compound 89
B4: N^ε21-[(4S)-4-carboxy-4-[[(4S)-4-carboxy-4-(19-carboxynonadecanoylamino)butanoyl]amino]butanoyl]-[Asp14,Arg17,Lys21,Pro27,Asp35]-h-amylin (peptide)
peptide: KCNTATCATQRLADFLRHSSK([γGlu-γGlu-C20 diacid])NFGAIPSSTNVGSDTY-NH2
modifications: disulfide 2-7; N-terminus assumed
SMILES: CC[C@H](C)[C@H](NC(=O)[C@H](C)NC(=O)CNC(=O)[C@H](Cc1ccccc1)NC(=O)[C@H](CC(N)=O)NC(=O)[C@H](CCCCNC(=O)CC[C@H](NC(=O)CC[C@H](NC(=O)CCCCCCCCCCCCCCCCCCC(=O)O)C(=O)O)C(=O)O)NC(=O)[C@H](CO)NC(=O)[C@H](CO)NC(=O)[C@H](Cc1c[nH]cn1)NC(=O)[C@H](CCCNC(=N)N)NC(=O)[C@H](CC(C)C)NC(=O)[C@H](Cc1ccccc1)NC(=O)[C@H](CC(=O)O)NC(=O)[C@H](C)NC(=O)[C@H](CC(C)C)NC(=O)[C@H](CCCNC(=N)N)NC(=O)[C@H](CCC(N)=O)NC(=O)[C@@H](NC(=O)[C@H](C)NC(=O)[C@@H]1CSSC[C@H](NC(=O)[C@@H](N)CCCCN)C(=O)N[C@@H](CC(N)=O)C(=O)N[C@@H]([C@@H](C)O)C(=O)N[C@@H](C)C(=O)N[C@@H]([C@@H](C)O)C(=O)N1)[C@@H](C)O)C(=O)N1CCC[C@H]1C(=O)N[C@@H](CO)C(=O)N[C@@H](CO)C(=O)N[C@H](C(=O)N[C@@H](CC(N)=O)C(=O)N[C@H](C(=O)NCC(=O)N[C@@H](CO)C(=O)N[C@@H](CC(=O)O)C(=O)N[C@H](C(=O)N[C@@H](Cc1ccc(O)cc1)C(N)=O)[C@@H](C)O)C(C)C)[C@@H](C)O
notes: synthetic analogue of human amylin; also called compound 59
B5: N^ε1-[(4S)-4-carboxy-4-[[(4S)-4-carboxy-4-(19-carboxynonadecanoylamino)butanoyl]amino]butanoyl]-[Glu14,Arg17,Pro21,Pro27,His34]-h-amylin (peptide)
peptide: K([γGlu-γGlu-C20 diacid])CNTATCATQRLAEFLRHSSPNFGAIPSSTNVGHNTY-NH2
modifications: disulfide 2-7; N-terminus assumed
SMILES: CC[C@H](C)[C@H](NC(=O)[C@H](C)NC(=O)CNC(=O)[C@H](Cc1ccccc1)NC(=O)[C@H](CC(N)=O)NC(=O)[C@@H]1CCCN1C(=O)[C@H](CO)NC(=O)[C@H](CO)NC(=O)[C@H](Cc1c[nH]cn1)NC(=O)[C@H](CCCNC(=N)N)NC(=O)[C@H](CC(C)C)NC(=O)[C@H](Cc1ccccc1)NC(=O)[C@H](CCC(=O)O)NC(=O)[C@H](C)NC(=O)[C@H](CC(C)C)NC(=O)[C@H](CCCNC(=N)N)NC(=O)[C@H](CCC(N)=O)NC(=O)[C@@H](NC(=O)[C@H](C)NC(=O)[C@@H]1CSSC[C@H](NC(=O)[C@@H](N)CCCCNC(=O)CC[C@H](NC(=O)CC[C@H](NC(=O)CCCCCCCCCCCCCCCCCCC(=O)O)C(=O)O)C(=O)O)C(=O)N[C@@H](CC(N)=O)C(=O)N[C@@H]([C@@H](C)O)C(=O)N[C@@H](C)C(=O)N[C@@H]([C@@H](C)O)C(=O)N1)[C@@H](C)O)C(=O)N1CCC[C@H]1C(=O)N[C@@H](CO)C(=O)N[C@@H](CO)C(=O)N[C@H](C(=O)N[C@@H](CC(N)=O)C(=O)N[C@H](C(=O)NCC(=O)N[C@@H](Cc1c[nH]cn1)C(=O)N[C@@H](CC(N)=O)C(=O)N[C@H](C(=O)N[C@@H](Cc1ccc(O)cc1)C(N)=O)[C@@H](C)O)C(C)C)[C@@H](C)O
notes: synthetic analogue of human amylin; also called compound 87

Each binder was assayed against T1, rat calcitonin receptor (assay: ratio of binding IC50s: rat calcitonin receptor over rat amylin receptor (reference)).

| Binder | Ratio rCT/rAmylin binding |
| --- | --- |
| B1 | 126 |
| B2 | 84.9 |
| B3 | 48.8 |
| B4 | 28.5 |
| B5 | 45.6 |

The binders below were run against T2, rat amylin receptor (rat calcitonin …) (assay: SPA competition with 125I-rat amylin, membranes of BHK cells with rat calcitonin receptor + rat RAMP3 (Assay VI)).

| Binder | IC50 [nM] |
| --- | --- |
| B1 | 2.8 |
| B2 | 2.31 |
| B3 | 2.37 |
| B4 | 0.659 |
| B5 | 2.07 |

What follows are binders tested against T1, rat calcitonin receptor (assay: SPA competition with 125I-calcitonin, membranes of BHK cells with rat calcitonin receptor (Assay VIII)).

| Binder | IC50 [nM] |
| --- | --- |
| B1 | 352 |
| B2 | 196 |
| B3 | 115 |
| B4 | 18.8 |
| B5 | 94.5 |

These binders were tested against T3, human calcitonin receptor (assay: ratio of binding IC50s: human calcitonin receptor over human amylin receptor (reference)).
How it was run: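 IC₅₀ values were derived by one-site competition analysis of SPA counts. Cell membranes (35 ng/μL) with SPA beads were incubated with test compounds for 120 min at 25° C in Hepes buffer, pH 7.4, containing CaCl2, MgCl₂, OA and Tween20.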

| Binder | Ratio hCT/hAmylin binding |
| --- | --- |
| B1 | 159 |
| B2 | 46.5 |
| B3 | 28 |
| B4 | 4.3 |
| B5 | 35.6 |
